Data from US20040053370A1 (Eli Lilly, published 2004).
Ends that are not written are not given here.

Target: GLP-1 receptor
Assay: cell-based or functional assay

Going from HVEGTFTSDVSSYLEKQAAKEFIAWLVKGR-NH2 [Val^8-Lys^22-GLP-1(7-36)NH2] to HVEGTFTSDLSSYLEGQAAEEFIAWLVKGRG [Val^8-Leu^16-Glu^26-GLP-1(7-37)OH], the “GLP-1 Receptor Activation” value falls from 0.53 fold of GLP-1(7-37)OH to 0.23 fold of GLP-1(7-37)OH.

Going from HGEGHFTSDVSSYLEGQAAKEFIAWLVKGRG [Gly^8-His^11-GLP-1(7-37)OH] to HGEGTFTSDVSSYLEGQAAKEFIEWLVKGRG [Gly^8-Glu^30-GLP-1(7-37)OH], the “GLP-1 Receptor Activation” value rises from 0.282 fold of GLP-1(7-37)OH to 0.29 fold of GLP-1(7-37)OH.

First: HVEGTFTSDVSSYLEEQAAKEFIAWLVKGR-NH2 [Val^8-Glu^22-GLP-1(7-36)NH2]
Second: HVEGTFTSDVSSYLEGQAAKEFIAWLVKGGP-NH2 [Val^8-Gly^36-Pro^37-GLP-1(7-37)NH2]
The “GLP-1 Receptor Activation” value of the first is higher: 1 fold of GLP-1(7-37)OH for the first, 0.53 fold of GLP-1(7-37)OH for the second.

First: HVEGTFTSDVSSYLEGQAAKEFIAWLKVGRG [Val^8-Lys^33-Val^34-GLP-1(7-37)OH]
Second: HVEGTFTSDVSSYLEGQAAKEFIAWLVGKRG [Val^8-Gly^34-Lys^35-GLP-1(7-37)OH]
The “GLP-1 Receptor Activation” value of the first is lower: 0.08 fold of GLP-1(7-37)OH for the first, 0.34 fold of GLP-1(7-37)OH for the second.

First: HVEGTFTSDVSSYLEGQAAKEFIAWLVKPRG [Val^8-Pro^35-GLP-1(7-37)OH]
Second: HAEGTFTSDVSSYLEQQAAKEFIAWLVKGRG [Gln^22-GLP-1(7-37)OH]
The “GLP-1 Receptor Activation” value of the first is lower: 0.094 fold of GLP-1(7-37)OH for the first, 0.42 fold of GLP-1(7-37)OH for the second.

First: HVEGTFTSDVSSYLEEKAAKEFIAWLVKGRG [Val^8-Glu^22-Lys^23-GLP-1(7-37)OH]
Second: HVEGTFTSDVSSYLEGQAAKHFIAWLVKGRG [Val^8-His^27-GLP-1(7-37)OH]
The “GLP-1 Receptor Activation” value of the first is higher: 1.43 fold of GLP-1(7-37)OH for the first, 0.37 fold of GLP-1(7-37)OH for the second.

Going from HVEGTFTSDVSSYLEGQAAKEFIAWLVKHRG [Val^8-His^35-GLP-1(7-37)OH] to HVEGTFTSDVSSYLEKQAAKEFIEWLVKGRG [Val^8-Lys^22-Glu^30-GLP-1(7-37)OH], the “GLP-1 Receptor Activation” value falls from 0.41 fold of GLP-1(7-37)OH to 0.37 fold of GLP-1(7-37)OH.

Going from HVEGTFTSDVSSYLEGQAAKEFIAWLAKGRG [Val^8-Ala^33-GLP-1(7-37)OH] to HVEGTFTSDVSSYLEEQAAKEFIAWLVKGRG [Val^8-Glu^22-GLP-1(7-37)OH], the “GLP-1 Receptor Activation” value rises from 0.1 fold of GLP-1(7-37)OH to 1.29 fold of GLP-1(7-37)OH.

Going from HVEGTFTSDVSSYLEGQAAKEFIAWLEKGRG [Val^8-Glu^33-GLP-1(7-37)OH] to HVEGTFTSDVSSYLESQAAKEFIAWLVKGRG [Val^8-Ser^22-GLP-1(7-37)OH], the “GLP-1 Receptor Activation” value rises from 0.039 fold of GLP-1(7-37)OH to 0.5 fold of GLP-1(7-37)OH.

First: HVEGTFTSDVSSYLEGQAAKEFIAWLVKGRH [Val^8-His^37-GLP-1(7-37)OH]
Second: HVEGTFTSDVSSYLEGQAAKEFIHWLVKGRG [Val^8-His^30-GLP-1(7-37)OH]
The “GLP-1 Receptor Activation” value of the first is higher: 0.33 fold of GLP-1(7-37)OH for the first, 0.19 fold of GLP-1(7-37)OH for the second.

Going from HVEGTFTSDVSSYLEGQAAKEFIAWLVKGHG [Val^8-His^36-GLP-1(7-37)OH] to HVEGTFTSDVSSYLEGQAAKEFIEWLVKGRG [Val^8-Glu^30-GLP-1(7-37)OH], the “GLP-1 Receptor Activation” value rises from 0.22 fold of GLP-1(7-37)OH to 0.29 fold of GLP-1(7-37)OH.

Compared with HVEGTFTSDVSSYLEGQAAKEFIDWLVKGRG [Val^8-Asp^30-GLP-1(7-37)OH], HVEGAFTSDVSSYLEGQAAKEFIAWLVKGRG [Val^8-Ala^11-GLP-1(7-37)OH] is lower in “GLP-1 Receptor Activation” value: 0.15 fold of GLP-1(7-37)OH for the first, 0.021 fold of GLP-1(7-37)OH for the second.

First: HVEGTFTSDVSSYLEPQAAKEFIAWLVKGRG [Val^8-Pro^22-GLP-1(7-37)OH]
Second: HVEGTFTSDVSSYLEGQAAKEFIAWLVEGRG [Val^8-Glu^34-GLP-1(7-37)OH]
The “GLP-1 Receptor Activation” value of the first is lower: 0.01 fold of GLP-1(7-37)OH for the first, 0.17 fold of GLP-1(7-37)OH for the second.

Going from HVEGTFTSDVSSYLEGQAAHEFIAWLVKGRG [Val^8-His^26-GLP-1(7-37)OH] to HVEGTFTSDASSYLEGQAAKEFIAWLVKGRG [Val^8-Ala^16-GLP-1(7-37)OH], the “GLP-1 Receptor Activation” value falls from 1.6 fold of GLP-1(7-37)OH to 0.112 fold of GLP-1(7-37)OH.

Going from HVEGTFTSDVSSYLEGKAAKEFIAWLVKGRG [Val^8-Lys^23-GLP-1(7-37)OH] to HVEGTFTSDVSSYLEHQAAKEFIAWLVKGRG [Val^8-His^22-GLP-1(7-37)OH], the “GLP-1 Receptor Activation” value falls from 0.18 fold of GLP-1(7-37)OH to 0.14 fold of GLP-1(7-37)OH.

First: HVEGTFTSDVSSYLEGQAAKEFIAWLGKGRG [Val^8-Gly^33-GLP-1(7-37)OH]
Second: HVEGTFTSDVSSYLEAQAAKEFIAWLVKGRG [Val^8-Ala^22-GLP-1(7-37)OH]
The “GLP-1 Receptor Activation” value of the first is lower: 0.01 fold of GLP-1(7-37)OH for the first, 0.56 fold of GLP-1(7-37)OH for the second.

Compared with HVEGTFTSDVSSYLEGQAAKEFIAWLVKERG [Val^8-Glu^35-GLP-1(7-37)OH], HVEGTFTSDVSSYLEKEAAKEFIAWLVKGRG [Val^8-Lys^22-Glu^23-GLP-1(7-37)OH] is higher in “GLP-1 Receptor Activation” value: 0.15 fold of GLP-1(7-37)OH for the first, 0.35 fold of GLP-1(7-37)OH for the second.

Going from HVEGTFTSDESSYLEGQAAKEFIAWLVKGRG [Val^8-Glu^16-GLP-1(7-37)OH] to HVEGTFTSDVSSYLEGQAAKEFISWLVKGRG [Val^8-Ser^30-GLP-1(7-37)OH], the “GLP-1 Receptor Activation” value rises from 0.047 fold of GLP-1(7-37)OH to 0.19 fold of GLP-1(7-37)OH.

Going from HVEGTFTSDVSSYLEKQAAKEFIAWLVKGRG [Val^8-Lys^22-GLP-1(7-37)OH] to HVEGTFTSDVSSYKEGQAAKEFIAWLVKGRG [Val^8-Lys^20-GLP-1(7-37)OH], the “GLP-1 Receptor Activation” value falls from 0.58 fold of GLP-1(7-37)OH to 0.33 fold of GLP-1(7-37)OH.

Compared with HVEGTFTSDVSSYLEDQAAKEFIAWLVKGRG [Val^8-Asp^22-GLP-1(7-37)OH], HVEGKFTSDVSSYLEGQAAKEFIAWLVKGRG [Val^8-Lys^11-GLP-1(7-37)OH] is lower in “GLP-1 Receptor Activation” value: 0.4 fold of GLP-1(7-37)OH for the first, 0.001 fold of GLP-1(7-37)OH for the second.

Going from HVEGTFTSDVSSYLEGQKAKEFIAWLVKGRG [Val^8-Lys^24-GLP-1(7-37)OH] to HVEGTFTSDVSSYLEGQHAKEFIAWLVKGRG [Val^8-His^24-GLP-1(7-37)OH], the “GLP-1 Receptor Activation” value falls from 0.02 fold of GLP-1(7-37)OH to 0.007 fold of GLP-1(7-37)OH.

First: HVEGTFTSDVSSYLEGQAAEEFIAWLVKGRG [Val^8-Glu^26-GLP-1(7-37)OH]
Second: HVEGTFTSDVSSYLEGQAAKEFIAWLVKGEG [Val^8-Glu^36-GLP-1(7-37)OH]
The “GLP-1 Receptor Activation” value of the first is higher: 1.5 fold of GLP-1(7-37)OH for the first, 0.11 fold of GLP-1(7-37)OH for the second.

Target: GLP-1 receptor
Assay: cell-based or functional assay
Remark: another data set of the same source

First: HVEGTYTSDVSSYLEGQAAKEFIAWLVKGR-NH2 [Val^8-Tyr^12-GLP-1(7-36)NH2]
Second: HVDGIFTSDYSSYLEEQAAKEFIAWLVKGRG [Val^8-Asp^9-Ile^11-Tyr^16-Glu^22-GLP-1(7-37)OH]
The “GLP-1 Receptor Activation” value of the first is lower: 0.52 fold of GLP-1(7-37)OH for the first, 2.02 fold of GLP-1(7-37)OH for the second.

First: HVEGTFTSDVSSYFEEQAAKEFIAWLVKGRG [Val^8-Phe^20-Glu^22-GLP-1(7-37)OH]
Second: HVEGTFTSDVSSYLEEQAAKIFIAWLVKGRG [Val^8-Glu^22-Ile^27-GLP-1(7-37)OH]
The “GLP-1 Receptor Activation” value of the first is higher: 1.27 fold of GLP-1(7-37)OH for the first, 0.94 fold of GLP-1(7-37)OH for the second.

Going from HVEGTFTSDLSSYLEGQAAKEFIAWLVKGRG [Val^8-Leu^16-GLP-1(7-37)OH] to HVEGTFTSDCSSYLEGQAAKEFIAWLVKGRG [Val^8-Cys^16-Lys^26-GLP-1(7-37)OH], the “GLP-1 Receptor Activation” value rises from 0.52 fold of GLP-1(7-37)OH to 1.97 fold of GLP-1(7-37)OH.

First: HVEGTFTSDVSSYLEEQAIKEFIAWLVKGRG [Val^8-Glu^22-Ile^25-GLP-1(7-37)OH]
Second: HGEGTFTSDVSSYLEGQAAKEFIAWLVKGRG [Gly^8-GLP-1(7-37)OH]
The “GLP-1 Receptor Activation” value of the first is higher: 1.46 fold of GLP-1(7-37)OH for the first, 0.8 fold of GLP-1(7-37)OH for the second.

Going from HVEGTFTSDYSSWLEEQAAKEFIAWLVKGRG [Val^8-Tyr^16-Trp^19-Glu^22-GLP-1(7-37)OH] to HVEGTWTSDVSSYLEGQAAKEFIAWLVKGRG [Val^8-Trp^12-GLP-1(7-37)OH], the “GLP-1 Receptor Activation” value falls from 1.64 fold of GLP-1(7-37)OH to 0.52 fold of GLP-1(7-37)OH.

Compared with HVEGTFTSDVSSYLEEQALKEFIAWLVKGRG [Val^8-Glu^22-Leu^25-GLP-1(7-37)OH], HVEGTFTSDWSSYLEEQAVKEFIAWLIKGRG [Val^8-Trp^16-Glu^22-Val^25-Ile^33-GLP-1(7-37)OH] is higher in “GLP-1 Receptor Activation” value: 1.32 fold of GLP-1(7-37)OH for the first, 2.35 fold of GLP-1(7-37)OH for the second.
